Assay results from the supplement of paper PMC7877785.
± gives the uncertainty stated by the source.

Experiment: self-splicing fitness, log relative to wild type (ln ratio); higher = more splicing; Tetrahymena group I intron in knt gene, E. coli kanamycin selection, DiMSum; sequences stand for … in CUCUCU…GGAGGGAAAAGUUAUCAGGCAUGCACCUGGUAGCUAGUCUUUAAACCAAUAGAUUGCAUCGGUUUAAAAGGCAAGACCGUCAAAUUGCGGGAAAGGGGUCAACAGCCGUUCAGUACCAAGUCUCAGGGGAAACUUUGAGAUGGCCUUGCAAAGGGUAUGGUAAUAAGCUGACGGACAUGGUCCUAACCACGCAGCCAAGUCCUAAGUCAACAGAUCUUCUGUUGAUAUGGAUGCAGUUCACAGACUAAAUGUCGGUCGGGGAAGAUGUAUUCUUCUCAUAAGAUAUAGUCGGACCUCUCCUUAAUGGGAGCUAGCGGAUGAAGUGAUGCAACACUGGAGCCGCUGGGAACUAAUUUGUAUGCGAAAGUAUAUUGAUUAGUUUUGGAGUACUCGUGGUCG
Method in brief: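 Colonies from six replicate transformations of E. coli BL21(DE3) were pooled and amplicon-sequenced on an Illumina HiSeq 2500. The library placed an intron with all eight P1ex-region nucleotides randomised inside the knt kanamycin-resistance gene on pET-22b(+), and cells grew overnight at 37°C or 30°C on LB agar with or without 25 μg/mL kanamycin (plus 100 μg/mL carbenicillin, 50 μM IPTG, 0.2% rhamnose). Fitness is the DiMSum error-weighted combination of wild-type-normalised replicate fold changes, kanamycin versus none.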

Sequence	self-splicing fitness (ln) (30 °C)	self-splicing fitness (ln) (37 °C)
UCAGAGCAAUAUUACGCAUA	-3.19 ± 0.42	
UCAGAGCAAUAUUACGCAUG	-3.13 ± 0.3	-2.02 ± 0.21
UCAGAGCAAUAUUACGCCAG	-2.62 ± 0.3	-0.0811 ± 0.28
UCAGAGCAAUAUUACGCCGA	-3.18 ± 0.33	-1.63 ± 0.23
UCAGAGCAAUAUUACGCCGU		-3.02 ± 0.43
UCAGAGCAAUAUUACGCGGA	-2.96 ± 0.33	-1.64 ± 0.17
UCAGAGCAAUAUUACGCUAG	-2.4 ± 0.12	-2.95 ± 0.28
UCAGAGCAAUAUUACGGAUA	-2.81 ± 0.3	
UCAGAGCAAUAUUACGGCCA	-2.1 ± 0.27	-2.17 ± 0.32
UCAGAGCAAUAUUACGGGUU	-3.76 ± 0.46	-1.58 ± 0.26
UCAGAGCAAUAUUACGUAGG	-0.836 ± 0.12	-0.744 ± 0.17
UCAGAGCAAUAUUACGUAUG	-2.12 ± 0.23	-2.37 ± 0.31
UCAGAGCAAUAUUACGUGCC	-2.62 ± 0.41	
UCAGAGCAAUAUUACGUGCG	-2.9 ± 0.23	-0.826 ± 0.16
UCAGAGCAAUAUUACGUGUG	-2.67 ± 0.13	-2.53 ± 0.13
UCAUAGCAAUAUUACGAACA	-1.78 ± 0.17	-0.838 ± 0.16
UCAUAGCAAUAUUACGACAU	-4.005 ± 0.032	-2.92 ± 0.042
UCAUAGCAAUAUUACGACGC	-1.6 ± 0.19	-0.696 ± 0.21
UCAUAGCAAUAUUACGACGG	-0.375 ± 0.11	-0.184 ± 0.13
UCAUAGCAAUAUUACGACUG	-1.04 ± 0.1	-0.379 ± 0.14

Sequence	self-splicing fitness (ln) (30 °C)	self-splicing fitness (ln) (37 °C)
UCAUAGCAAUAUUACGAUAC	-3.23 ± 0.38	
UCAUAGCAAUAUUACGAUAU	-3.76 ± 0.32	-2.4 ± 0.29
UCAUAGCAAUAUUACGAUCG	-0.885 ± 0.09	-0.426 ± 0.12
UCAUAGCAAUAUUACGAUGC	-1.49 ± 0.14	-1.43 ± 0.14
UCAUAGCAAUAUUACGAUUU	-3.45 ± 0.22	-2.24 ± 0.22
UCAUAGCAAUAUUACGCAAU	-3.1 ± 0.19	-2.84 ± 0.28
UCAUAGCAAUAUUACGCAGA	-2.93 ± 0.34	-2.7 ± 0.24
UCAUAGCAAUAUUACGCCAG	-1.74 ± 0.17	-2.4 ± 0.19
UCAUAGCAAUAUUACGCCGC	-3.77 ± 0.33	-1.61 ± 0.41
UCAUAGCAAUAUUACGCUAA	-3.23 ± 0.37	-2.07 ± 0.29
UCAUAGCAAUAUUACGGAAG		-2.19 ± 0.33
UCAUAGCAAUAUUACGGCAG	-1.31 ± 0.15	-1.07 ± 0.15
UCAUAGCAAUAUUACGGGUA	-1.8 ± 0.094	-1.53 ± 0.079
UCAUAGCAAUAUUACGGUAA	-2.44 ± 0.27	-0.618 ± 0.15
UCAUAGCAAUAUUACGGUAG	-3.28 ± 0.23	-1.77 ± 0.17
UCAUAGCAAUAUUACGGUCA	-1.1 ± 0.16	-0.484 ± 0.16
UCAUAGCAAUAUUACGUCGG	-1.34 ± 0.12	-0.0833 ± 0.11
UCAUAGCAAUAUUACGUCGU	-3.88 ± 0.39	-1.79 ± 0.38
UCAUAGCAAUAUUACGUCUA	-2.05 ± 0.19	-0.601 ± 0.14
UCAUAGCAAUAUUACGUGAA	-2.56 ± 0.091	-1.61 ± 0.1
